Measured values from PMC5467231, “The signalling receptor MCAM coordinates apical-basal polarity and planar cell polarity during morphogenesis” (Nature Communications, 2017).

Biological target: T1, recombinant human MCAM/Fc chimera (Sino Biological 10115-H02H) (human, UniProt P43121 24-559)
T1 construct: melanoma cell adhesion molecule (MCAM), human, part fused to Fc; IgG1 Fc served as the control chimera; source: bought: Sino Biological Inc
T1 sequence (looked up): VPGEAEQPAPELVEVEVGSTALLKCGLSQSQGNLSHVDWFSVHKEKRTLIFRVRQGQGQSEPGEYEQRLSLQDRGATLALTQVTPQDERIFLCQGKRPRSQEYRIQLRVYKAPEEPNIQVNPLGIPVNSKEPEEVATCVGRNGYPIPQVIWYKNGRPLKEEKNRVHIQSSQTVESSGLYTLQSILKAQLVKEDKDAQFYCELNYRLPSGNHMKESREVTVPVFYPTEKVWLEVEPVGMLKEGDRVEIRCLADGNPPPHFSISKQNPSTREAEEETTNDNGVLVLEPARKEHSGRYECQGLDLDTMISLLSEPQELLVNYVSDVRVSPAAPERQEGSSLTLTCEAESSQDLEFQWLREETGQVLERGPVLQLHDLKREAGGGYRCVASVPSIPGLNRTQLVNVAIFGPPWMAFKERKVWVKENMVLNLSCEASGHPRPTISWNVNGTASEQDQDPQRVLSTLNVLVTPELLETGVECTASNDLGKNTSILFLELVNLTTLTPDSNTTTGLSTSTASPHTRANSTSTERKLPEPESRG
Assay: SPR; Biacore T100, CM5 chip, room temperature, 1x PBS with 0.05% Tween 20; MCAM/Fc, FGFR1/Fc, FGFR2/Fc or IgG1 Fc immobilised by amine coupling, soluble FGF2, FGF4 or FGF8 flowed over; 1:1 binding model
Conditions: both partners purified

- Kd: 0.97 nM
B1: recombinant FGF4 (Peprotech AF-100-31) (ligand, UniProt P08620 31-206, looked up)
chain: APTAPNGTLEAELERRWESLVALSLARLPVAAQPKEAAVQSGAGDYLLGIKRLRRLYCNVGIGFHLQALPDGRIGGAHADTRDSLLELSPVERGVVSIFGVASRFFVAMSSKGKLYGSPFFTDECTFKEILLPNNYNAYESYKYPGMFIALSKNGKTKKGNRVSPTMKVTHFLPRL
notes: fibroblast growth factor 4, recombinant, soluble; also called soluble FGF4; source: bought: Peprotech
